Patent publication US12427210B2, “Compounds comprising a fibroblast activation protein ligand and use thereof” (priority 2019, dated 2025)

T1: ETA (h) (human), P25101
T1 chain: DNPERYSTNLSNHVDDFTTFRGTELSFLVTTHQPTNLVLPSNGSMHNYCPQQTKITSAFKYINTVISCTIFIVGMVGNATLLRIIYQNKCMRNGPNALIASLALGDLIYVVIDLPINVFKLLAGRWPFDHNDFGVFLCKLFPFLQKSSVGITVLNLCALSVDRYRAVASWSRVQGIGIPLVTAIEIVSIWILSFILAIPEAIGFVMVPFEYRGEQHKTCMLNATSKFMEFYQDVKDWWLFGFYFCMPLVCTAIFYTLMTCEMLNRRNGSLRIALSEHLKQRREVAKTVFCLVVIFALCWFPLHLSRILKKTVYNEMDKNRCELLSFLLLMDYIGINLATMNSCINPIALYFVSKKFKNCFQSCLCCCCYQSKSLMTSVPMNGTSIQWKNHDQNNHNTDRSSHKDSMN

T2: M1 (h) (human), P11229
T2 chain: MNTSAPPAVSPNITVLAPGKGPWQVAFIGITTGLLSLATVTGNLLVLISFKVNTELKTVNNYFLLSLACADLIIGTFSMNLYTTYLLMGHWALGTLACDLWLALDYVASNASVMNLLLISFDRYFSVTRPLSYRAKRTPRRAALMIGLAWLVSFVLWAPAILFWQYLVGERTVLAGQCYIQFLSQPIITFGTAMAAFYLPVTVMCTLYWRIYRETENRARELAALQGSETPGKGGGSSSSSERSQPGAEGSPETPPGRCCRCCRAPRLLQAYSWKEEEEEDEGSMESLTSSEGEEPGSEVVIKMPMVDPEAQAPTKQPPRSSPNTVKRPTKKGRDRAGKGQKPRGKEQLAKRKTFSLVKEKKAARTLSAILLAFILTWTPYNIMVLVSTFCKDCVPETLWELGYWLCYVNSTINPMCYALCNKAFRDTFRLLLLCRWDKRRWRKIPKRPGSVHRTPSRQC

T3: D1 (h) (human), P21728
T3 chain: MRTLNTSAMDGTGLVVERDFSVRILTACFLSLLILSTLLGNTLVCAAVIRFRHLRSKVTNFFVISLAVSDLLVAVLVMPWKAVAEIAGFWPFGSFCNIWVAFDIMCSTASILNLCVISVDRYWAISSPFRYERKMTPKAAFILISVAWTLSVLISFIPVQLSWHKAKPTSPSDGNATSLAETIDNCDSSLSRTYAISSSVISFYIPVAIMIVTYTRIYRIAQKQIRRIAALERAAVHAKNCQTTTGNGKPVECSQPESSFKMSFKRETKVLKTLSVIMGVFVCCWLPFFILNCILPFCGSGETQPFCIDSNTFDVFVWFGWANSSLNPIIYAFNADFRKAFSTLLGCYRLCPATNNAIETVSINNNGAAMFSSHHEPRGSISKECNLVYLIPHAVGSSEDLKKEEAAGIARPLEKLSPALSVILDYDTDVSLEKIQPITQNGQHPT

T4: CB1 (h) (human), P21554
T4 chain: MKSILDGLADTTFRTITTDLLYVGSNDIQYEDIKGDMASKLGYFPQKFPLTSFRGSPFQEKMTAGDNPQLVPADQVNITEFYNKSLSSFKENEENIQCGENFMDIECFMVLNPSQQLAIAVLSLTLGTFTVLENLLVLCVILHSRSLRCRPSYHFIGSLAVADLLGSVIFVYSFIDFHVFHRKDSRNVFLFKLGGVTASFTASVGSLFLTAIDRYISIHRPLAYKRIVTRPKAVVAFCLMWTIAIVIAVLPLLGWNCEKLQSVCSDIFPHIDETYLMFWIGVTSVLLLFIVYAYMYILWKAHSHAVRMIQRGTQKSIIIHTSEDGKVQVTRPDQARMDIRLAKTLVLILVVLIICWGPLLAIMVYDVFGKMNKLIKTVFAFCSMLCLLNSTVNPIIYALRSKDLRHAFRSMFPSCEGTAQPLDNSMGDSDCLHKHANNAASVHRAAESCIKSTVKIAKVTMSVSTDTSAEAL

T5: M2 (h) (human), P08172
T5 chain: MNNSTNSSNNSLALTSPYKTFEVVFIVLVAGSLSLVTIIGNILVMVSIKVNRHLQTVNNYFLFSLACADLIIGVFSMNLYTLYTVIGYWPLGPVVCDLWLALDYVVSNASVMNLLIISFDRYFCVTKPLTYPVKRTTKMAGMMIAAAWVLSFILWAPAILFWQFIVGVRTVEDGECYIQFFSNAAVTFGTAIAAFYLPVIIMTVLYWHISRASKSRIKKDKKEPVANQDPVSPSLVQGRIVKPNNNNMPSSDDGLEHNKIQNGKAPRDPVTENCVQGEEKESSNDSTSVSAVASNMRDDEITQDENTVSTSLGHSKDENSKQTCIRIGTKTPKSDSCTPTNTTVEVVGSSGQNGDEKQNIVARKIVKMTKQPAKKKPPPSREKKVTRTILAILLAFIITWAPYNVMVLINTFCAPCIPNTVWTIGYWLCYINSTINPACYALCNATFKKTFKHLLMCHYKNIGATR


What was measured:
Assay in all cases: radioligand displacement, compound at 10 µM
Details in all cases: remark: other sources report otherwise
ETA (h) (human), P25101 = target: T1, ETA (h) (human), P25101
[1] = substrate: N neuronal alpha 4beta 2 (h) (human), P43681
M1 (h) (human), P11229 = target: T2, M1 (h) (human), P11229
H2 (h) (human), P25021 = target: H2 (h) (human), P25021
[2] = target: beta 1 (h) (human), P08588
D1 (h) (human), P21728 = target: T3, D1 (h) (human), P21728
CB1 (h) (human), P21554 = target: T4, CB1 (h) (human), P21554
[3] = target: 5-HT2A (h) (human), P28223
M2 (h) (human), P08172 = target: T5, M2 (h) (human), P08172

Sequence of H2 (h) (human), P25021 (P25021 whole entry): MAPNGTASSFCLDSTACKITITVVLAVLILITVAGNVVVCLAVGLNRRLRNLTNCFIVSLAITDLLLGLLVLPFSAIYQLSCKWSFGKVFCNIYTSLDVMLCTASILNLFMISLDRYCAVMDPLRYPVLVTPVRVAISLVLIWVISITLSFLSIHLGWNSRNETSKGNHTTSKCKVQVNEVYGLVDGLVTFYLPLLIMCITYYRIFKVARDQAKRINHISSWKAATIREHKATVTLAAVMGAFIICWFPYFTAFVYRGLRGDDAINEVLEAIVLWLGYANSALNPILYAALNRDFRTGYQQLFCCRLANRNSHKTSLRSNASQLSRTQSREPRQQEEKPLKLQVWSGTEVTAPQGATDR

Row | % Inhibition of Specific Binding (ETA (h) (human), P25101) [%] | % Inhibition of Specific Binding [1] [%] | % Inhibition of Specific Binding (M1 (h) (human), P11229) [%] | % Inhibition of Specific Binding (H2 (h) (human), P25021) [%] | % Inhibition of Specific Binding [2] [%] | % Inhibition of Specific Binding (D1 (h) (human), P21728) [%] | % Inhibition of Specific Binding (CB1 (h) (human), P21554) [%] | % Inhibition of Specific Binding [3] [%] | % Inhibition of Specific Binding (M2 (h) (human), P08172) [%] | Binder
1 | 6 | -2 | 8 | -16 | -13 | 7 | -7 | 4 | 7 | CPPTQFC (here or on the partner: N-terminal hexanoyl (Hex); Cys1 and Cys7 cyclised through tMeBn carrying DOTA-AET; free C-terminal acid (-OH)) [Hex-[Cys(tMeBn(DOTA-AET))-Pro-Pro-Thr-Gln-Phe-Cys]-OH (3BP-3554)]
2 | -18 | -8 | 6 | -5 | 4 | 0 | 5 | -2 | -4 | CPPTQFCD (here or on the partner: N-terminal hexanoyl (Hex); Cys1 and Cys7 cyclised through tMeBn carrying DOTA-PP; C-terminal amide) [Hex-[Cys(tMeBn(DOTA-PP))-Pro-Pro-Thr-Gln-Phe-Cys]-Asp-NH2 (3BP-3407)]
